Assay results from publication PMC8479507 (Cell Reports, 2021).

Molecular target: SARS-CoV-2 receptor-binding domain (RBD) (SARS-CoV-2 (Wuhan-Hu-1), UniProt P0DTC2)
Assay: cell-based or functional assay

B1: monoclonal antibody 910-30, IgG (antibody, V domains shown)
VH: EVQLVESGGGLVQPGGSLRLSCAASGFTVSSNYMSWVRQAPGKGLEWVSLIYSGGSTYYADSVKGRFTISRHNSKNTLYLQMNSLRAEDTAVYYCARIYGDYAWGQGTLVTVSS
VL: not shown
IC50 of neutralisation of authentic SARS-CoV-2; blocks RBD binding to ACE2: 0.142 µg/mL
